Measured values: patent US20150203577A1 (Chugai, published 2015)

Assays:
[1] = target: T1, mouse FcγRIII extracellular domain with C-terminal His tag (mouse, UniProt P08508 31-215); test: SPR Biacore T200
T1 construct: Made on the basis of NCBI NP-034318.2; also called mFcγRIII; mFcgRIII
T1 chain: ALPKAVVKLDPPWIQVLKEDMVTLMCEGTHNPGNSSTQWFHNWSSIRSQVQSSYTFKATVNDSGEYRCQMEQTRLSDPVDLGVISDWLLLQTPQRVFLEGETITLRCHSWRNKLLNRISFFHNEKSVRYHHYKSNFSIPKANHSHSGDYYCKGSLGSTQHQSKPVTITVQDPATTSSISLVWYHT
Method: (§1) Each altered antibody was analyzed for its interaction with each Fcγ receptor prepared above using Biacore T100 (GE Healthcare Japan Corp.), Biacore T200 (GE Healthcare Japan Corp.), Biacore A100, or Biacore 4000. The running buffer used was HBS-EP+ (GE Healthcare Japan Corp.). The assay temperature was set to 25° C. The sensor chips used were chips prepared by immobilizing Protein L (ACTIGEN or BioVision) onto Series S Sensor Chip CM5 (GE Healthcare Japan Corp.) or Series S Sensor Chip CM4 (GE Healthcare Japan Corp.) by the amine coupling method.
(§2) In order to calculate the KD value of each altered antibody for FcγR, kinetic analysis was conducted according to the following method: first, the antibody of interest was captured onto any of these chips and allowed to interact with mFcγR diluted with a running buffer. For the obtained sensorgram, the assay results were globally fit into the 1:1 Langmuir binding model using Biacore Evaluation Software to calculate an association rate constant ka (L/mol/s) and a dissociation rate constant kd (1/s). From these values, the dissociation constant KD (mol/L) was calculated.

[2] = target: T2, mouse FcγRII extracellular domain with C-terminal His tag (mouse, UniProt P08101 30-210); test: SPR Biacore T200
T2 construct: Made on the basis of NCBI NP-034317.1; also called mFcγRII; mFcgRII
T2 sequence: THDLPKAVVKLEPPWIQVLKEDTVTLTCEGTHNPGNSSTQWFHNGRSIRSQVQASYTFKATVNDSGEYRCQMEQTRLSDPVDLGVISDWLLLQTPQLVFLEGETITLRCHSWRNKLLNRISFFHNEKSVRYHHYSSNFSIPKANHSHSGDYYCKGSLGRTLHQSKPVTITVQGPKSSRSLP
Method: as §1, §2

[3] = target: T2, mouse FcγRII extracellular domain with …; test: SPR Biacore T200; KD mFcγRIII / KD mFcγRII
Method: as §1, §2

Binder	relative mFcγRIII-binding activity (mIgG1 = 1) [1]	relative mFcγRII-binding activity (mIgG1 = 1) [2]	relative I/A (mFcγRII selectivity) (mIgG1 = 1) [3]	Kd [1] [nM]	Kd [2] [nM]	I/A (mFcγRII selectivity) [3]
H237-MB339/MRAL-k0 (antibody, mouse IgG1, kappa, copies: 2 + 2) heavy: QVQLQESGPGLVKPSETLSLTCAVSGHSISHDHAWSWVRQPPGEGLEWIGFISYSGITNYNPSLQGRVTISRDNSKNTLYLQMNSLRAEDTAVYYCARSLARTTAMDYWGEGTLVTVSSAKTTPPSVYPLAPGSAAQTNSMVTLGCLVKGYFPEPVTVTWNSGSLSSGVHTFPAVLQSDLYTLSSSVTVPSSTWPSETVTCNVAHPASSTKVDKKIVPRDCGCKPCICEVWEVEDVFIFPPKPKDVLTITLTPKVTCVVVDISKDDPEVQFSWFVDDVEVHTAQTQPREEQFNSTFRSVSELPIMHQDWLNGKEFKCRVNSAAFPAPIEKTISKTKGRPKAPQVYTIPPPKEQMAKDKVSLTCMITDFFPEDITVEWQWNGQPAENYKNTQPIMDTDGSYFVYSKLNVQKSNWEAGNTFTCSVLHEGLHNHHTEKSLSHSPGK light: not shown	11.6	197	17	–	–	–
H237-MB367/MRAL-k0 (antibody, mouse IgG1, kappa, mIgG1 with T230E/V231A/P232N/S238E/S239D (EU); copies: 2 + 2) heavy: QVQLQESGPGLVKPSETLSLTCAVSGHSISHDHAWSWVRQPPGEGLEWIGFISYSGITNYNPSLQGRVTISRDNSKNTLYLQMNSLRAEDTAVYYCARSLARTTAMDYWGEGTLVTVSSAKTTPPSVYPLAPGSAAQTNSMVTLGCLVKGYFPEPVTVTWNSGSLSSGVHTFPAVLQSDLYTLSSSVTVPSSTWPSETVTCNVAHPASSTKVDKKIVPRDCGCKPCICEANEVEDVFIFPPKPKDVLTITLTPKVTCVVVDISKDDPEVQFSWFVDDVEVHTAQTQPREEQFNSTFRSVSELPIMHQDWLNGKEFKCRVNSAAFPAPIEKTISKTKGRPKAPQVYTIPPPKEQMAKDKVSLTCMITDFFPEDITVEWQWNGQPAENYKNTQPIMDTDGSYFVYSKLNVQKSNWEAGNTFTCSVLHEGLHNHHTEKSLSHSPGK light: not shown	6.2	159	25.6	–	–	–
H237-MB340/MRAL-k0 (antibody, mouse IgG1, kappa, copies: 2 + 2) heavy: QVQLQESGPGLVKPSETLSLTCAVSGHSISHDHAWSWVRQPPGEGLEWIGFISYSGITNYNPSLQGRVTISRDNSKNTLYLQMNSLRAEDTAVYYCARSLARTTAMDYWGEGTLVTVSSAKTTPPSVYPLAPGSAAQTNSMVTLGCLVKGYFPEPVTVTWNSGSLSSGVHTFPAVLQSDLYTLSSSVTVPSSTWPSETVTCNVAHPASSTKVDKKIVPRDCGCKPCICEAWEVEDVFIFPPKPKDVLTITLTPKVTCVVVDISKDDPEVQFSWFVDDVEVHTAQTQPREEQFNSTFRSVSELPIMHQDWLNGKEFKCRVNSAAFPAPIEKTISKTKGRPKAPQVYTIPPPKEQMAKDKVSLTCMITDFFPEDITVEWQWNGQPAENYKNTQPIMDTDGSYFVYSKLNVQKSNWEAGNTFTCSVLHEGLHNHHTEKSLSHSPGK light: not shown	9.9	221	22.4	28.6	0.952	30
H237-MB377/MRAL-k0 (antibody, mouse IgG1, kappa, copies: 2 + 2) heavy: QVQLQESGPGLVKPSETLSLTCAVSGHSISHDHAWSWVRQPPGEGLEWIGFISYSGITNYNPSLQGRVTISRDNSKNTLYLQMNSLRAEDTAVYYCARSLARTTAMDYWGEGTLVTVSSAKTTPPSVYPLAPGSAAQTNSMVTLGCLVKGYFPEPVTVTWNSGSLSSGVHTFPAVLQSDLYTLSSSVTVPSSTWPSETVTCNVAHPASSTKVDKKIVPRDCGCKPCICEVAEVEDVFIFPPKPKDVLTITLTPKVTCVVVDISKDDPEVQFSWFVDDVEVHTAQTQPREEQFNSTFRSVSELPIMHQDWLNGKEFKCRVNSAAFPAPIEKTISKTKGRPKAPQVYTIPPPKEQMAKDKVSLTCMITDFFPEDITVEWQWNGQPAENYKNTQPIMDTDGSYFVYSKLNVQKSNWEAGNTFTCSVLHEGLHNHHTEKSLSHSPGK light: not shown	6	127	21.3	–	–	–
H237-MB341/MRAL-k0 (antibody, mouse IgG1, kappa, copies: 2 + 2) heavy: QVQLQESGPGLVKPSETLSLTCAVSGHSISHDHAWSWVRQPPGEGLEWIGFISYSGITNYNPSLQGRVTISRDNSKNTLYLQMNSLRAEDTAVYYCARSLARTTAMDYWGEGTLVTVSSAKTTPPSVYPLAPGSAAQTNSMVTLGCLVKGYFPEPVTVTWNSGSLSSGVHTFPAVLQSDLYTLSSSVTVPSSTWPSETVTCNVAHPASSTKVDKKIVPRDCGCKPCICEDWEVEDVFIFPPKPKDVLTITLTPKVTCVVVDISKDDPEVQFSWFVDDVEVHTAQTQPREEQFNSTFRSVSELPIMHQDWLNGKEFKCRVNSAAFPAPIEKTISKTKGRPKAPQVYTIPPPKEQMAKDKVSLTCMITDFFPEDITVEWQWNGQPAENYKNTQPIMDTDGSYFVYSKLNVQKSNWEAGNTFTCSVLHEGLHNHHTEKSLSHSPGK light: not shown	11.5	268	23.4	24.6	0.782	31.4
H237-MB358/MRAL-k0 (antibody, mouse IgG1, kappa, copies: 2 + 2) heavy: QVQLQESGPGLVKPSETLSLTCAVSGHSISHDHAWSWVRQPPGEGLEWIGFISYSGITNYNPSLQGRVTISRDNSKNTLYLQMNSLRAEDTAVYYCARSLARTTAMDYWGEGTLVTVSSAKTTPPSVYPLAPGSAAQTNSMVTLGCLVKGYFPEPVTVTWNSGSLSSGVHTFPAVLQSDLYTLSSSVTVPSSTWPSETVTCNVAHPASSTKVDKKIVPRDCGCKPCICEAAEVEDVFIFPPKPKDVLTITLTPKVTCVVVDISKDDPEVQFSWFVDDVEVHTAQTQPREEQFNSTFRSVSELPIMHQDWLNGKEFKCRVNSAAFPAPIEKTISKTKGRPKAPQVYTIPPPKEQMAKDKVSLTCMITDFFPEDITVEWQWNGQPAENYKNTQPIMDTDGSYFVYSKLNVQKSNWEAGNTFTCSVLHEGLHNHHTEKSLSHSPGK light: not shown	4.1	114	27.7	–	–	–
H237-MB378/MRAL-k0 (antibody, mouse IgG1, kappa, copies: 2 + 2) heavy: QVQLQESGPGLVKPSETLSLTCAVSGHSISHDHAWSWVRQPPGEGLEWIGFISYSGITNYNPSLQGRVTISRDNSKNTLYLQMNSLRAEDTAVYYCARSLARTTAMDYWGEGTLVTVSSAKTTPPSVYPLAPGSAAQTNSMVTLGCLVKGYFPEPVTVTWNSGSLSSGVHTFPAVLQSDLYTLSSSVTVPSSTWPSETVTCNVAHPASSTKVDKKIVPRDCGCKPCICEVNEVEDVFIFPPKPKDVLTITLTPKVTCVVVDISKDDPEVQFSWFVDDVEVHTAQTQPREEQFNSTFRSVSELPIMHQDWLNGKEFKCRVNSAAFPAPIEKTISKTKGRPKAPQVYTIPPPKEQMAKDKVSLTCMITDFFPEDITVEWQWNGQPAENYKNTQPIMDTDGSYFVYSKLNVQKSNWEAGNTFTCSVLHEGLHNHHTEKSLSHSPGK light: not shown	9.3	172	18.6	–	–	–
H237-MB380/MRAL-k0 (antibody, mouse IgG1, kappa, copies: 2 + 2) heavy: QVQLQESGPGLVKPSETLSLTCAVSGHSISHDHAWSWVRQPPGEGLEWIGFISYSGITNYNPSLQGRVTISRDNSKNTLYLQMNSLRAEDTAVYYCARSLARTTAMDYWGEGTLVTVSSAKTTPPSVYPLAPGSAAQTNSMVTLGCLVKGYFPEPVTVTWNSGSLSSGVHTFPAVLQSDLYTLSSSVTVPSSTWPSETVTCNVAHPASSTKVDKKIVPRDCGCKPCICEDAEVEDVFIFPPKPKDVLTITLTPKVTCVVVDISKDDPEVQFSWFVDDVEVHTAQTQPREEQFNSTFRSVSELPIMHQDWLNGKEFKCRVNSAAFPAPIEKTISKTKGRPKAPQVYTIPPPKEQMAKDKVSLTCMITDFFPEDITVEWQWNGQPAENYKNTQPIMDTDGSYFVYSKLNVQKSNWEAGNTFTCSVLHEGLHNHHTEKSLSHSPGK light: not shown	4.2	78.1	18.7	–	–	–
